Publication PMC3680381

Tests used:
[1] = biological target: Plasmodium falciparum cytoplasmic tryptophanyl-tRNA synthetase, full length (Plasmodium falciparum); assay: SEC; gel filtration on Superdex200, 20 mM Tris, 100 mM NaCl, pH 7.5; oligomeric state from migration against markers (BSA, DTD)
[2] = biological target: Pf-WRS catalytic domain (aminoacylation and anticodon binding domains) (Plasmodium falciparum); assay: as above

Row | stoichiometry N [1] | stoichiometry N [2] | Substance
1 | 2 |  | Plasmodium falciparum cytoplasmic tryptophanyl-tRNA synthetase, full length (enzyme)
2 |  | 2 | Pf-WRS catalytic domain (aminoacylation and anticodon binding domains) (domain or fragment)
